Substrate in this data set: CC(C)=C[C@H](N)[C@@H](O)C(=O)O
In words: LC/ESI-MS/MS product quantification, Michaelis-Menten fit. In kind it is biochemical, Brevibacillus parabrevis. Conditions: 7 varied 0.05-1 mM, CoA 1 mM, ATP 1 mM, MgCl2, phosphate pH 8, 31 °C.

B1: PheAT (truncated TycA module of tyrocidine synthase) (Brevibacillus parabrevis) (protein)
chain: MLANQANLIDNKRELEQHALVPYAQGKSIHQLFEEQAEAFPDRVAIVFENRRLSYQELNRKANQLARALLEKGVQTDSIVGVMMEKSIENVIAILAVLKAGGAYVPIDIEYPRDRIQYILQDSQTKIVLTQKSVSQLVHDVGYSGEVVVLDEEQLDARETANLHQPSKPTDLAYVIYTSGTTGKPKGTMLEHKGIANLQSFFQNSFGVTEQDRIGLFASMSFDASVWEMFMALLSGASLYILSKQTIHDFAAFEHYLSENELTIITLPPTYLTHLTPERITSLRIMITAGSASSAPLVNKWKDKLRYINAYGPTETSICATIWEAPSNQLSVQSVPIGKPIQNTHIYIVNEDLQLLPTGSEGELCIGGVGLARGYWNRPDLTAEKFVDNPFVPGEKMYRTGDLAKWLTDGTIEFLGRIDHQVKIRGHRIELGEIESVLLAHEHITEAVVIAREDQHAGQYLCAYYISQQEATPAQLRDYAAQKLPAYMLPSYFVKLDKMPLTPNDKIDRKALPEPDLTANQSQAAYHPPRTETESILVSIWQNVLGIEKIGIRDNFYSLGGDSIQAIQVVARLHSYQLKLETKDLLNYPTIEQVALFVKSTTRKSD
notes: truncated TycA (PheAT)
As for B1, the Km was found to be 112 µM and the kcat worked out at 0.5 min⁻¹.

The values above are taken from paper PMC11600153, “Mg^2+-Ion Dependence Revealed for a BAHD 13-O-β-Aminoacyltransferase from Taxus Plants” (JACS Au, 2024).
